Residue numbers refer to the chain shown, from its start. Numbers in names are those of the source.

The results in this text go back to US20240270846A1 (published 2024).

Sequences and labels used below:
B1: GLS3000 S27aG (Kabat) L chain altered form, one-arm antibody with CE115HA000 (antibody, human IgG1, kappa, L234A L235A, N297A, name in Kabat numbering)
heavy: QVQLVESGGGVVQPGRSLRLSCAASGFTFSNAWMHWVRQAPGKGLEWVAQIKAKSNNYATYYAESVKGRFTISRDDSKNSLYLQMNSLKTEDTAVYYCRYVHYGAYYGVDAWGQGTTVTVSSASTKGPSVFPLAPSSKSTSGGTAALGCLVKDYFPEPVTVSWNSGALTSGVHTFPAVLQSSGLYSLSSVVTVPSSSLGTQTYICNVNHKPSNTKVDKKVEPKSCDKTHTCPPCPAPEAAGGPSVFLFPPKPKDTLMISRTPEVTCVVVDVSHEDPEVKFNWYVDGVEVHNAKTKPREEQYASTYRVVSVLTVLHQDWLNGKEYKCKVSNKALPAPIEKTISKAKGQPREPQVYTLPPSRCELTKNQVSLSCAVKGFYPSDIAVEWESNGQPENNYKTTPPVLDSDGSFFLVSKLTVDKSRWQQGNVFSCSVMHEALHNHYTQKSLSLSPDYKDDDDK
chain: EPKSSDKTHTCPPCPAPELLGGPSVFLFPPKPKDTLMISRTPEVTCVVVDVSHEDPEVKFNWYVDGVEVHNAKTKPREEQYNSTYRVVSVLTVLHQDWLNGKEYKCKVSNKALPAPIEKTISKAKGQPREPQVCTLPPSRDELTKNQVSLWCLVKGFYPSDIAVEWESNGQPENNYKTTPPVLDSDGSFFLYSKLTVDKSRWQQGNVFSCSVMHEALHNRYTQKSLSLSP
light: DIVMTQSPLSLPVTPGEPASISCRSSQGLVHSNRNTYLHWYQQKPGQAPRLLIYKVSNRFSGVPDRFSGSGSGTDFTLKISRVEAEDVGVYYCGQGTQVPYTFGQGTKLEIKRTVAAPSVFIFPPSDEQLKSGTASVVCLLNNFYPREAKVQWKVDNALQSGNSQESVTEQDSKDSTYSLSSTLTLSKADYEKHKVYACEVTHQGLSSPVTKSFNRGEC
notes: one-arm antibody
B2: GLS3000 S27eA (Kabat) L chain altered form, one-arm antibody with CE115HA000 (antibody, human IgG1, kappa, L234A L235A, N297A, name in Kabat numbering)
heavy: B1 heavy
chain: B1 chain
light: B1 light with G28S, S32A
notes: one-arm antibody
B3: GLS3000 S27eH (Kabat) L chain altered form, one-arm antibody with CE115HA000 (antibody, human IgG1, kappa, L234A L235A, N297A, name in Kabat numbering)
heavy: B1 heavy
chain: B1 chain
light: B1 light with G28S, S32H
notes: one-arm antibody
B4: GLS3000 S27eD (Kabat) L chain altered form, one-arm antibody with CE115HA000 (antibody, human IgG1, kappa, L234A L235A, N297A, name in Kabat numbering)
heavy: B1 heavy
chain: B1 chain
light: B1 light with G28S, S32D
notes: one-arm antibody
B5: GLS3000 S27eI (Kabat) L chain altered form, one-arm antibody with CE115HA000 (antibody, human IgG1, kappa, L234A L235A, N297A, name in Kabat numbering)
heavy: B1 heavy
chain: B1 chain
light: B1 light with G28S, S32I
notes: one-arm antibody
B6: GLS3000 S27eP (Kabat) L chain altered form, one-arm antibody with CE115HA000 (antibody, human IgG1, kappa, L234A L235A, N297A, name in Kabat numbering)
heavy: B1 heavy
chain: B1 chain
light: B1 light with G28S, S32P
notes: one-arm antibody
B7: GLS3000 S27aN (Kabat) L chain altered form, one-arm antibody with CE115HA000 (antibody, human IgG1, kappa, L234A L235A, N297A, name in Kabat numbering)
heavy: B1 heavy
chain: B1 chain
light: B1 light with G28N
notes: one-arm antibody
B8: GLS3000 S27eW (Kabat) L chain altered form, one-arm antibody with CE115HA000 (antibody, human IgG1, kappa, L234A L235A, N297A, name in Kabat numbering)
heavy: B1 heavy
chain: B1 chain
light: B1 light with G28S, S32W
notes: one-arm antibody
B9: GLS3000 S27eQ (Kabat) L chain altered form, one-arm antibody with CE115HA000 (antibody, human IgG1, kappa, L234A L235A, N297A, name in Kabat numbering)
heavy: B1 heavy
chain: B1 chain
light: B1 light with G28S, S32Q
notes: one-arm antibody
B10: GLS3000 V27cD (Kabat) L chain altered form, one-arm antibody with CE115HA000 (antibody, human IgG1, kappa, L234A L235A, N297A, name in Kabat numbering)
heavy: B1 heavy
chain: B1 chain
light: B1 light with G28S, V30D
notes: one-arm antibody
B11: GLS3000 V27cI (Kabat) L chain altered form, one-arm antibody with CE115HA000 (antibody, human IgG1, kappa, L234A L235A, N297A, name in Kabat numbering)
heavy: B1 heavy
chain: B1 chain
light: B1 light with G28S, V30I
notes: one-arm antibody
B12: GLS3000 S27eR (Kabat) L chain altered form, one-arm antibody with CE115HA000 (antibody, human IgG1, kappa, L234A L235A, N297A, name in Kabat numbering)
heavy: B1 heavy
chain: B1 chain
light: B1 light with G28S, S32R
notes: one-arm antibody
B13: GLS3000 S27eF (Kabat) L chain altered form, one-arm antibody with CE115HA000 (antibody, human IgG1, kappa, L234A L235A, N297A, name in Kabat numbering)
heavy: B1 heavy
chain: B1 chain
light: B1 light with G28S, S32F
notes: one-arm antibody
B14: GLS3000 S27aP (Kabat) L chain altered form, one-arm antibody with CE115HA000 (antibody, human IgG1, kappa, L234A L235A, N297A, name in Kabat numbering)
heavy: B1 heavy
chain: B1 chain
light: B1 light with G28P
notes: one-arm antibody
B15: GLS3000 S27eY (Kabat) L chain altered form, one-arm antibody with CE115HA000 (antibody, human IgG1, kappa, L234A L235A, N297A, name in Kabat numbering)
heavy: B1 heavy
chain: B1 chain
light: B1 light with G28S, S32Y
notes: one-arm antibody
B16: GLS3000 S27aY (Kabat) L chain altered form, one-arm antibody with CE115HA000 (antibody, human IgG1, kappa, L234A L235A, N297A, name in Kabat numbering)
heavy: B1 heavy
chain: B1 chain
light: B1 light with G28Y
notes: one-arm antibody
B17: GLS3000 S56A (Kabat) L chain altered form, one-arm antibody with CE115HA000 (antibody, human IgG1, kappa, L234A L235A, N297A, name in Kabat numbering)
heavy: B1 heavy
chain: B1 chain
light: B1 light with G28S, S61A
notes: one-arm antibody
B18: GLS3000 V27cE (Kabat) L chain altered form, one-arm antibody with CE115HA000 (antibody, human IgG1, kappa, L234A L235A, N297A, name in Kabat numbering)
heavy: B1 heavy
chain: B1 chain
light: B1 light with G28S, V30E
notes: one-arm antibody
B19: GLS3000 V27cY (Kabat) L chain altered form, one-arm antibody with CE115HA000 (antibody, human IgG1, kappa, L234A L235A, N297A, name in Kabat numbering)
heavy: B1 heavy
chain: B1 chain
light: B1 light with G28S, V30Y
notes: one-arm antibody
B20: GLS3000 S27eV (Kabat) L chain altered form, one-arm antibody with CE115HA000 (antibody, human IgG1, kappa, L234A L235A, N297A, name in Kabat numbering)
heavy: B1 heavy
chain: B1 chain
light: B1 light with G28S, S32V
notes: one-arm antibody
B21: GLS3000 V27cL (Kabat) L chain altered form, one-arm antibody with CE115HA000 (antibody, human IgG1, kappa, L234A L235A, N297A, name in Kabat numbering)
heavy: B1 heavy
chain: B1 chain
light: B1 light with G28S, V30L
notes: one-arm antibody
B22: GLS3000 S27eM (Kabat) L chain altered form, one-arm antibody with CE115HA000 (antibody, human IgG1, kappa, L234A L235A, N297A, name in Kabat numbering)
heavy: B1 heavy
chain: B1 chain
light: B1 light with G28S, S32M
notes: one-arm antibody
B23: GLS3000 S27eT (Kabat) L chain altered form, one-arm antibody with CE115HA000 (antibody, human IgG1, kappa, L234A L235A, N297A, name in Kabat numbering)
heavy: B1 heavy
chain: B1 chain
light: B1 light with G28S, S32T
notes: one-arm antibody
B24: GLS3000 S52A (Kabat) L chain altered form, one-arm antibody with CE115HA000 (antibody, human IgG1, kappa, L234A L235A, N297A, name in Kabat numbering)
heavy: B1 heavy
chain: B1 chain
light: B1 light with G28S, S57A
notes: one-arm antibody
B25: GLS3000 S27eG (Kabat) L chain altered form, one-arm antibody with CE115HA000 (antibody, human IgG1, kappa, L234A L235A, N297A, name in Kabat numbering)
heavy: B1 heavy
chain: B1 chain
light: B1 light with G28S, S32G
notes: one-arm antibody
B26: GLS3000 S27eE (Kabat) L chain altered form, one-arm antibody with CE115HA000 (antibody, human IgG1, kappa, L234A L235A, N297A, name in Kabat numbering)
heavy: B1 heavy
chain: B1 chain
light: B1 light with G28S, S32E
notes: one-arm antibody
B27: GLS3000 S27eN (Kabat) L chain altered form, one-arm antibody with CE115HA000 (antibody, human IgG1, kappa, L234A L235A, N297A, name in Kabat numbering)
heavy: B1 heavy
chain: B1 chain
light: B1 light with G28S, S32N
notes: one-arm antibody
B28: GLS3000 V27cS (Kabat) L chain altered form, one-arm antibody with CE115HA000 (antibody, human IgG1, kappa, L234A L235A, N297A, name in Kabat numbering)
heavy: B1 heavy
chain: B1 chain
light: B1 light with G28S, V30S
notes: one-arm antibody
B29: GLS3000 V27cP (Kabat) L chain altered form, one-arm antibody with CE115HA000 (antibody, human IgG1, kappa, L234A L235A, N297A, name in Kabat numbering)
heavy: B1 heavy
chain: B1 chain
light: B1 light with G28S, V30P
notes: one-arm antibody
B30: GLS3000 S27eL (Kabat) L chain altered form, one-arm antibody with CE115HA000 (antibody, human IgG1, kappa, L234A L235A, N297A, name in Kabat numbering)
heavy: B1 heavy
chain: B1 chain
light: B1 light with G28S, S32L
notes: one-arm antibody
B31: GLS3000 S27eK (Kabat) L chain altered form, one-arm antibody with CE115HA000 (antibody, human IgG1, kappa, L234A L235A, N297A, name in Kabat numbering)
heavy: B1 heavy
chain: B1 chain
light: B1 light with G28S, S32K
notes: one-arm antibody
B32: GLS3000 S27aI (Kabat) L chain altered form, one-arm antibody with CE115HA000 (antibody, human IgG1, kappa, L234A L235A, N297A, name in Kabat numbering)
heavy: B1 heavy
chain: B1 chain
light: B1 light with G28I
notes: one-arm antibody

T1 sequence (P07766 23-126): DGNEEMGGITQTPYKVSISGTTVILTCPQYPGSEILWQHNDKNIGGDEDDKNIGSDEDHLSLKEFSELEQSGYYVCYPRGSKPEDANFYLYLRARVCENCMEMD

This assay addresses T1, CD3 epsilon homodimer protein (UniProt P07766 23-126).
T1 construct: construct not described; homodimer as printed; also called CD3 (CD3 epsilon)
Nature of the assay: SPR Biacore T200, CD3 epsilon homodimer immobilized; vs unaltered GLS3000.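 Further: antibody variants flowed as analyte over CD3 epsilon homodimer amine-coupled to a CM4 chip, at 25 °C in HBS-EP+ running buffer, fitted with Biacore T200 Evaluation Software.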
On to B1, for which the “KD ratio to GLS3000 (Affinity up)” value stood at 0.8.
In the case of B2, the “KD ratio to GLS3000 (Affinity up)” value is 1.01.
In the case of B3 it was 1.09; in that of B4, 1.23.
As for B5, the “KD ratio to GLS3000 (Affinity up)” value amounted to 1.05.
For the molecule B6, the “KD ratio to GLS3000 (Affinity up)” value was found to be 1.06.
For B7, the “KD ratio to GLS3000 (Affinity up)” value is 0.98.
On to B8, for which the “KD ratio to GLS3000 (Affinity up)” value is 1.32.
On to B9, for which the “KD ratio to GLS3000 (Affinity up)” value was 1.08.
On to B10, for which the “KD ratio to GLS3000 (Affinity up)” value came to 3.21.
For the molecule B11, the “KD ratio to GLS3000 (Affinity up)” value was 1.03.
The value for B12 was 1.35; that for B13 was 1.16; that for B14 was 1.01.
As for B15, the “KD ratio to GLS3000 (Affinity up)” value was 1.1.
Consider B16, for which the “KD ratio to GLS3000 (Affinity up)” value came to 0.93.
As to B17, the “KD ratio to GLS3000 (Affinity up)” value was found to be 1.18.
The value for B18 was 1.1; that for B19 was 1.25.
In the case of B20, the “KD ratio to GLS3000 (Affinity up)” value stood at 0.95.
The value for B21 was 0.81.
B22: the “KD ratio to GLS3000 (Affinity up)” value came out at 1.11.
Consider B23, for which the “KD ratio to GLS3000 (Affinity up)” value was 0.98.
In the case of B24 it was 0.9.
For the molecule B25, the “KD ratio to GLS3000 (Affinity up)” value worked out at 1.03.
For the molecule B26, the “KD ratio to GLS3000 (Affinity up)” value is 1.04.
In the case of B27 it was 1.01; in that of B28, 3.04; in that of B29, 3.71.
For the molecule B30, the “KD ratio to GLS3000 (Affinity up)” value came to 1.06.
B31: the “KD ratio to GLS3000 (Affinity up)” value was 1.32.
In the case of B32 it was 0.87.
